Laboratory results reported in patent US20170081400A1 (CEPHALON, published 2017).

T1: human TL1A extracellular domain with N-terminal HIS and FLAG tag (human, UniProt O95150 72-251)
T1 construct: whole entry named. ~70 kDa fraction purified by gel filtration
T1 sequence: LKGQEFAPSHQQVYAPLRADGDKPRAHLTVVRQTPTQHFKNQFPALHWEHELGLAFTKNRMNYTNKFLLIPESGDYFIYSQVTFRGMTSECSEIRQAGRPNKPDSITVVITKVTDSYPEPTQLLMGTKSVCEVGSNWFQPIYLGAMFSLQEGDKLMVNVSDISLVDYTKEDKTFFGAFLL


Tests used:
[1] = target: T1, human TL1A extracellular domain with …; assay: SPR run 2; supernatant on Protein A; TL1A 10 ug/mL; timepoint 44
From the text: (§1) 1.5. Antibody expression and antigen binding as determined by SPR. Using a CM5 sensor chip (GE Healthcare) Protein A (Pierce) was coupled to the chip surface using an amine coupling kit (GE Healthcare). Protein A was coupled on flow cell 1 and 2 (or alternatively 3 and 4) using a BIACORE® T200. […] The amount of supernatant or purified protein (as well as the concentration) injected during the capture stage varied between runs and is specified in the header of the Tables 3-11. At the end of injection of the supernatant or purified antibody the change in response units was measured. This value was reported as Capture Level in Tables 3-11. […] The response units were measured prior to the end of the dissociation phase. […] The sensorgrams were double referenced (flow cell 2 is subtracted from flow cell 1 and a buffer blank). As there were a large number of antibody variants to screen, these were screened across different runs (Tables 3-11). […] A summary of the conditions used in each run is below:
(§2) 2.1. […] In some experiment the antibodies were purified using Protein A chromatography (See 1.4) and purified antibodies were used in BIACORE® (GE Healthcare) experiments.

[2] = target: T1, human TL1A extracellular domain with …; assay: SPR run 2; supernatant on Protein A; TL1A 10 ug/mL; timepoint 220
From the text: as §1, §2

Row | Binder | TL1A Binding Level (Early) [1] [RU] | TL1A Binding Level (Late) [2] [RU]
1 | 320-212 (antibody, human IgG1, name in Kabat numbering, V domains shown, human IgG1, lambda) VH: QVQLVQSGAEVKKPGASVKVSCKASGYTFTSYDINWVRQAPGQGLEWMGWLNPNSGNTGYAQKFQGRVTMTADRSTSTAYMELSSLRSEDTAVYYCAREVPETAAFEYWGQGTLVTVSS VL: QSVLTQPPSVSGAPGQRVTISCTSHSSDIGAGLGVHWYQQLPGTAPKLLIEGYYNRPSGVPDRFSGSKSGTSASLTITGLLPEDEGDYYCQSYDGTLSALFGGGTKLTVLG | 226 | 205
2 | 320-228 (antibody, human IgG1, name in Kabat numbering, V domains shown, human IgG1, lambda) VH: QVQLVQSGAEVKKPGASVKVSCKASGYTFTSYDINWVRQAPGQGLEWMGWLNPNSGNTGYAQKFQGRVTMTADRSTSTAYMELSSLRSEDTAVYYCAREVPETAAFEYWGQGTLVTVSS VL: QSVLTQPPSVSGAPGQRVTISCTSSSHDIGAGLGVHWYQQLPGTAPKLLIEGYYNRPSGVPDRFSGSKSGTSASLTITGLLPEDEGDYYCQSYDGTLSALFGGGTKLTVLG | 259 | 235
3 | 320-222 (antibody, human IgG1, name in Kabat numbering, V domains shown, human IgG1, lambda) VH: QVQLVQSGAEVKKPGASVKVSCKASGYTFTSYDINWVRQAPGQGLEWMGWLNPNSGNTGYAQKFQGRVTMTADRSTSTAYMELSSLRSEDTAVYYCAREVPETAAFEYWGQGTLVTVSS VL: QSVLTQPPSVSGAPGQRVTISCTSSLSDIGAGLGVHWYQQLPGTAPKLLIEGYYNRPSGVPDRFSGSKSGTSASLTITGLLPEDEGDYYCQSYDGTLSALFGGGTKLTVLG | 156 | 96
4 | 320-227 (antibody, human IgG1, name in Kabat numbering, V domains shown, human IgG1, lambda) VH: QVQLVQSGAEVKKPGASVKVSCKASGYTFTSYDINWVRQAPGQGLEWMGWLNPNSGNTGYAQKFQGRVTMTADRSTSTAYMELSSLRSEDTAVYYCAREVPETAAFEYWGQGTLVTVSS VL: QSVLTQPPSVSGAPGQRVTISCTSSSDDIGAGLGVHWYQQLPGTAPKLLIEGYYNRPSGVPDRFSGSKSGTSASLTITGLLPEDEGDYYCQSYDGTLSALFGGGTKLTVLG | 242 | 218
5 | 320-225 (antibody, human IgG1, name in Kabat numbering, V domains shown, human IgG1, lambda) VH: QVQLVQSGAEVKKPGASVKVSCKASGYTFTSYDINWVRQAPGQGLEWMGWLNPNSGNTGYAQKFQGRVTMTADRSTSTAYMELSSLRSEDTAVYYCAREVPETAAFEYWGQGTLVTVSS VL: QSVLTQPPSVSGAPGQRVTISCTSSSADIGAGLGVHWYQQLPGTAPKLLIEGYYNRPSGVPDRFSGSKSGTSASLTITGLLPEDEGDYYCQSYDGTLSALFGGGTKLTVLG | 267 | 243
6 | 320-217 (antibody, human IgG1, name in Kabat numbering, V domains shown, human IgG1, lambda) VH: QVQLVQSGAEVKKPGASVKVSCKASGYTFTSYDINWVRQAPGQGLEWMGWLNPNSGNTGYAQKFQGRVTMTADRSTSTAYMELSSLRSEDTAVYYCAREVPETAAFEYWGQGTLVTVSS VL: QSVLTQPPSVSGAPGQRVTISCTSSASDIGAGLGVHWYQQLPGTAPKLLIEGYYNRPSGVPDRFSGSKSGTSASLTITGLLPEDEGDYYCQSYDGTLSALFGGGTKLTVLG | 258 | 235
7 | 320-215 (antibody, human IgG1, name in Kabat numbering, V domains shown, human IgG1, lambda) VH: QVQLVQSGAEVKKPGASVKVSCKASGYTFTSYDINWVRQAPGQGLEWMGWLNPNSGNTGYAQKFQGRVTMTADRSTSTAYMELSSLRSEDTAVYYCAREVPETAAFEYWGQGTLVTVSS VL: QSVLTQPPSVSGAPGQRVTISCTSWSSDIGAGLGVHWYQQLPGTAPKLLIEGYYNRPSGVPDRFSGSKSGTSASLTITGLLPEDEGDYYCQSYDGTLSALFGGGTKLTVLG | 220 | 199
8 | 320-223 (antibody, human IgG1, name in Kabat numbering, V domains shown, human IgG1, lambda) VH: QVQLVQSGAEVKKPGASVKVSCKASGYTFTSYDINWVRQAPGQGLEWMGWLNPNSGNTGYAQKFQGRVTMTADRSTSTAYMELSSLRSEDTAVYYCAREVPETAAFEYWGQGTLVTVSS VL: QSVLTQPPSVSGAPGQRVTISCTSSWSDIGAGLGVHWYQQLPGTAPKLLIEGYYNRPSGVPDRFSGSKSGTSASLTITGLLPEDEGDYYCQSYDGTLSALFGGGTKLTVLG | 143 | 66
9 | 320-232 (antibody, human IgG1, name in Kabat numbering, V domains shown, human IgG1, lambda) VH: QVQLVQSGAEVKKPGASVKVSCKASGYTFTSYDINWVRQAPGQGLEWMGWLNPNSGNTGYAQKFQGRVTMTADRSTSTAYMELSSLRSEDTAVYYCAREVPETAAFEYWGQGTLVTVSS VL: QSVLTQPPSVSGAPGQRVTISCTSSSYDIGAGLGVHWYQQLPGTAPKLLIEGYYNRPSGVPDRFSGSKSGTSASLTITGLLPEDEGDYYCQSYDGTLSALFGGGTKLTVLG | 261 | 235
10 | 320-234 (antibody, human IgG1, name in Kabat numbering, V domains shown, human IgG1, lambda) VH: QVQLVQSGAEVKKPGASVKVSCKASGYTFTSYDINWVRQAPGQGLEWMGWLNPNSGNTGYAQKFQGRVTMTADRSTSTAYMELSSLRSEDTAVYYCAREVPETAAFEYWGQGTLVTVSS VL: QSVLTQPPSVSGAPGQRVTISCTSSSSSIGAGLGVHWYQQLPGTAPKLLIEGYYNRPSGVPDRFSGSKSGTSASLTITGLLPEDEGDYYCQSYDGTLSALFGGGTKLTVLG | 262 | 239
11 | 320-230 (antibody, human IgG1, name in Kabat numbering, V domains shown, human IgG1, lambda) VH: QVQLVQSGAEVKKPGASVKVSCKASGYTFTSYDINWVRQAPGQGLEWMGWLNPNSGNTGYAQKFQGRVTMTADRSTSTAYMELSSLRSEDTAVYYCAREVPETAAFEYWGQGTLVTVSS VL: QSVLTQPPSVSGAPGQRVTISCTSSSLDIGAGLGVHWYQQLPGTAPKLLIEGYYNRPSGVPDRFSGSKSGTSASLTITGLLPEDEGDYYCQSYDGTLSALFGGGTKLTVLG | 245 | 223
12 | 320-235 (antibody, human IgG1, name in Kabat numbering, V domains shown, human IgG1, lambda) VH: QVQLVQSGAEVKKPGASVKVSCKASGYTFTSYDINWVRQAPGQGLEWMGWLNPNSGNTGYAQKFQGRVTMTADRSTSTAYMELSSLRSEDTAVYYCAREVPETAAFEYWGQGTLVTVSS VL: QSVLTQPPSVSGAPGQRVTISCTSSSSQIGAGLGVHWYQQLPGTAPKLLIEGYYNRPSGVPDRFSGSKSGTSASLTITGLLPEDEGDYYCQSYDGTLSALFGGGTKLTVLG | 256 | 236
13 | 320-216 (antibody, human IgG1, name in Kabat numbering, V domains shown, human IgG1, lambda) VH: QVQLVQSGAEVKKPGASVKVSCKASGYTFTSYDINWVRQAPGQGLEWMGWLNPNSGNTGYAQKFQGRVTMTADRSTSTAYMELSSLRSEDTAVYYCAREVPETAAFEYWGQGTLVTVSS VL: QSVLTQPPSVSGAPGQRVTISCTSYSSDIGAGLGVHWYQQLPGTAPKLLIEGYYNRPSGVPDRFSGSKSGTSASLTITGLLPEDEGDYYCQSYDGTLSALFGGGTKLTVLG | 171 | 147
14 | 320-220 (antibody, human IgG1, name in Kabat numbering, V domains shown, human IgG1, lambda) VH: QVQLVQSGAEVKKPGASVKVSCKASGYTFTSYDINWVRQAPGQGLEWMGWLNPNSGNTGYAQKFQGRVTMTADRSTSTAYMELSSLRSEDTAVYYCAREVPETAAFEYWGQGTLVTVSS VL: QSVLTQPPSVSGAPGQRVTISCTSSHSDIGAGLGVHWYQQLPGTAPKLLIEGYYNRPSGVPDRFSGSKSGTSASLTITGLLPEDEGDYYCQSYDGTLSALFGGGTKLTVLG | 253 | 230
15 | 320-214 (antibody, human IgG1, name in Kabat numbering, V domains shown, human IgG1, lambda) VH: QVQLVQSGAEVKKPGASVKVSCKASGYTFTSYDINWVRQAPGQGLEWMGWLNPNSGNTGYAQKFQGRVTMTADRSTSTAYMELSSLRSEDTAVYYCAREVPETAAFEYWGQGTLVTVSS VL: QSVLTQPPSVSGAPGQRVTISCTSLSSDIGAGLGVHWYQQLPGTAPKLLIEGYYNRPSGVPDRFSGSKSGTSASLTITGLLPEDEGDYYCQSYDGTLSALFGGGTKLTVLG | 221 | 196
16 | 320-231 (antibody, human IgG1, name in Kabat numbering, V domains shown, human IgG1, lambda) VH: QVQLVQSGAEVKKPGASVKVSCKASGYTFTSYDINWVRQAPGQGLEWMGWLNPNSGNTGYAQKFQGRVTMTADRSTSTAYMELSSLRSEDTAVYYCAREVPETAAFEYWGQGTLVTVSS VL: QSVLTQPPSVSGAPGQRVTISCTSSSWDIGAGLGVHWYQQLPGTAPKLLIEGYYNRPSGVPDRFSGSKSGTSASLTITGLLPEDEGDYYCQSYDGTLSALFGGGTKLTVLG | 271 | 243
17 | 320-224 (antibody, human IgG1, name in Kabat numbering, V domains shown, human IgG1, lambda) VH: QVQLVQSGAEVKKPGASVKVSCKASGYTFTSYDINWVRQAPGQGLEWMGWLNPNSGNTGYAQKFQGRVTMTADRSTSTAYMELSSLRSEDTAVYYCAREVPETAAFEYWGQGTLVTVSS VL: QSVLTQPPSVSGAPGQRVTISCTSSYSDIGAGLGVHWYQQLPGTAPKLLIEGYYNRPSGVPDRFSGSKSGTSASLTITGLLPEDEGDYYCQSYDGTLSALFGGGTKLTVLG | 198 | 153
